Measurements published in publication PMC2926597.

Biological target: T1, KSRP KH23 (KH2-KH3 di-domain) (Homo sapiens, UniProt Q92945 233-418)
T1 sequence: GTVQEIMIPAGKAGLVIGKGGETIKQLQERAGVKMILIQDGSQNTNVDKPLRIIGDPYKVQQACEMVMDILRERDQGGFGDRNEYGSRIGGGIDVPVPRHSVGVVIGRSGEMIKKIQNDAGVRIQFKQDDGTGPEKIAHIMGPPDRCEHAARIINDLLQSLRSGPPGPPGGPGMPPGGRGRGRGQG
Experiment: CD titration

Binder: UAUUUAUUAUUU (ssRNA) [TNFa ARE AU-12mer]
- Kd: 1 ± 0.1 µM
